Source: article PMC7311640, “The Beta Subunit of Non-bifurcating NADH-Dependent [FeFe]-Hydrogenases Differs From Those of Multimeric Electron-Bifurcating [FeFe]-Hydrogenases” (Frontiers in Microbiology, 2020)

Target: the molecule itself
Experiment: SEC; purified HydAB fraction on Superdex 200 10/300 GL calibrated with gel filtration standards

B1: αβ heterodimer of Syntrophus aciditrophicus HydAB (His-HydA with HydB) (complex)
chain 1: MEEHMSSINLTVNNIDVEVEAGATLYQAAQKAGVNIPTLCAWFDKDHTPGACRVCVVEVEGMPSLAASCAYPAQNGMKVFTNSDKVRQARKMIVELILASHPQECNFCVRNGNCELQKVAEMVGVKNIRYDSEEFDRDRELDTSSPAIVRDSSKCINCRRCVTVCESIQTVAALSPMNRGYESTVSPAFNLPLNETNCVNCGQCVMACPVGALYEKDQVDEVWKALQDPTRHVVVQEAPAIRAALGEEFGMPPGSLVTGKMIAALRRLGFDKVFDTNFTADLTIIEEGNELLKRVKEGGTLPMITSCSPGWIKFCEHFYPDLLGHLSTCKSPQQMFGALAKTYYAQVSGIDPANIFSVSIMPCTAKKYEAQRPEMKSSGYQDVDVVLTTRELARMIKEAGIDFVNLPDEKYDDPMGEYTGAATIFGATGGVMEAALRTVYAVVTGEELSDLNIMPVRGLEGVKAAAVPVGALGDVKVAVAHGLGNARKLLDEIRAGKSEYAFIEVMCCPGGCVAGGGEPIPTTDEIRMLRAGALYRDDGEVQQYRQSHQSPPVKAVYEKFLKEPLGHKSHELLHTHYVQRGQSLPHLDASPAGEKETVEAMCEKD
chain 2: MITVQDIENVIAARGNAREHLMAILRDLENLSGRNVLDVSVLNTLAMKMDLPQSAISGFTSFYTMFSTEPRAKFIIRVCKSGPCHVMGARTIFDVIENHLGIRAGETTADGLFHLEECECLGLCSAAPAMMVNYDMHGNLSESNIKEILDSYSAREPAFKAEYGPGIEGRAVIINNSQQTRRLLENVGKVDPASIESYLQNGGYEAARKAFAEYSPEQVIGIVKDSGLRGRGGAGFPVGVKWSFVPKGEMQKYVICNADEGEPGTFKDRVLMEENPQQLIEGMLLCGYAIGATLGYIYVRGEYRRSIERLQSAIDQARAKGFLGKKIFGSNFDFDIFVKEGGGAYVCGEETSLINSMEGKRGYPRVRPPFPAAAGFMGMPSNVNNVETLSSIPMIVARGADWFKSVGTATCAGTKLYCLSGKVNQTGLVELPMGATLRQMIDTFGGGMKSGSSFKFAQVGGAAGGILGADLMDLPLDIDSTIKAGVTLGSGVVLVCDQETCAVDFLLNVLNFFEHESCGQCIPCKLGTSQLHYVAQKFAMREAEEKDIQLMIDTAKMMKLASLCALGQSPILPIETMIRNFREEFVKHCDPDYECPQCDASLQAYYL
notes: HydA, [FeFe]-hydrogenase alpha subunit, Syntrophus aciditrophicus, locus tag SYN_01370; as the chain of m1; HydB, [FeFe]-hydrogenase beta subunit, Syntrophus aciditrophicus, locus tag SYN_01369; as the chain of m2; Unit of the α2β2 heterotetramer found by size exclusion chromatography; also called HydAB fraction; 144 kDa αβ heterodimer; source: E. coli BL21(DE3), co-expressed with maturation genes
  stoichiometry N: 2
